Reference: publication PMC4601640, “Stability of the Human Hsp90-p50^Cdc37 Chaperone Complex against Nucleotides and Hsp90 Inhibitors, and the Influence of Phosphorylation by Casein Kinase 2” (Molecules, 2015)
“Also recorded” adds a separate entry of the source.

Assays:
[1] = biological target: p50Cdc37 1-378 (UniProt Q16543); assay: ELISA on immobilized GST-p50Cdc37, nucleotide dose-response; settings: for other: IC50 of ADP against complex: ADP titration; for other: IC50 of ATP against complex: ATP titration
[2] = biological target: human full-length Hsp90β (human) (UniProt P08238); assay: SEC; analytical Superdex200 10/300 GL, room temperature, 0.3 mL/min; 85 µM protein in 50 mM HEPES pH 7.5, 50 mM KCl, 5 mM MgCl2, 1 mM DTT; fractions on SDS-PAGE
[3] = biological target: Hsp90β (UniProt P08238); assay: ELISA on immobilized GST-p50Cdc37, nucleotide dose-response; settings: sites S13
[4] = biological target: Hsp82 (Saccharomyces cerevisiae) (UniProt P02829); settings: cited from earlier work
[5] = reference: unphosphorylated Hsp90β, sites S226,S255
[6] = reference: both proteins unphosphorylated, sites S226,S255,S13

p50Cdc37, sequence (Q16543 whole entry): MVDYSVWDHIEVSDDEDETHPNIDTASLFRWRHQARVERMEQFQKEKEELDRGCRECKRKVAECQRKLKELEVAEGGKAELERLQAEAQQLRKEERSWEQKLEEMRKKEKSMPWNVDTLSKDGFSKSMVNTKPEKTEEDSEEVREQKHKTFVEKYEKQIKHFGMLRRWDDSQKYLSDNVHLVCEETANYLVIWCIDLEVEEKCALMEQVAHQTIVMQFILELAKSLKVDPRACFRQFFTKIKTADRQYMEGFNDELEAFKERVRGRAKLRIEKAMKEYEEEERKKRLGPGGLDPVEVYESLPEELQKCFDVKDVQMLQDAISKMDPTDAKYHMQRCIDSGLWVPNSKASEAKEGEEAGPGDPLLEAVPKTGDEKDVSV
human full-length Hsp90β, P08238 1-724 (natural protein; other documents disagree on this pair), sequence (P08238 whole entry): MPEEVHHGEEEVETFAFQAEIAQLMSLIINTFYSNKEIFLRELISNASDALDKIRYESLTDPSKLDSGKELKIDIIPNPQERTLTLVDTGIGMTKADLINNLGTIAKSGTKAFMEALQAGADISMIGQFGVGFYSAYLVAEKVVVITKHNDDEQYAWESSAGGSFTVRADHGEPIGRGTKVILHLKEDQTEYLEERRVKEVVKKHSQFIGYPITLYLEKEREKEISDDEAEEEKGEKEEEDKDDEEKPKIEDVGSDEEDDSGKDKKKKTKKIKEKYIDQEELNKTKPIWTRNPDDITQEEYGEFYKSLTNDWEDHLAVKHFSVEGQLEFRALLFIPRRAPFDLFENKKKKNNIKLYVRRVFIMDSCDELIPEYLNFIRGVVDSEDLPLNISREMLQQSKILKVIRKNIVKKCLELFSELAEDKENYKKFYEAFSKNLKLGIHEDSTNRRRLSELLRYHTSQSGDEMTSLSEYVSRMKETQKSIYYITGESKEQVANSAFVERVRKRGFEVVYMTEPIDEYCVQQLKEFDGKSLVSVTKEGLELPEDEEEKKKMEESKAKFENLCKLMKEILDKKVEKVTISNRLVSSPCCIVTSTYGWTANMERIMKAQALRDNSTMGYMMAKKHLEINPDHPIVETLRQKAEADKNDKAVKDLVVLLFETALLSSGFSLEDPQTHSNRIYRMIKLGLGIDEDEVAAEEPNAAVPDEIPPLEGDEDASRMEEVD
Hsp82 (Saccharomyces cerevisiae), sequence (P02829 whole entry): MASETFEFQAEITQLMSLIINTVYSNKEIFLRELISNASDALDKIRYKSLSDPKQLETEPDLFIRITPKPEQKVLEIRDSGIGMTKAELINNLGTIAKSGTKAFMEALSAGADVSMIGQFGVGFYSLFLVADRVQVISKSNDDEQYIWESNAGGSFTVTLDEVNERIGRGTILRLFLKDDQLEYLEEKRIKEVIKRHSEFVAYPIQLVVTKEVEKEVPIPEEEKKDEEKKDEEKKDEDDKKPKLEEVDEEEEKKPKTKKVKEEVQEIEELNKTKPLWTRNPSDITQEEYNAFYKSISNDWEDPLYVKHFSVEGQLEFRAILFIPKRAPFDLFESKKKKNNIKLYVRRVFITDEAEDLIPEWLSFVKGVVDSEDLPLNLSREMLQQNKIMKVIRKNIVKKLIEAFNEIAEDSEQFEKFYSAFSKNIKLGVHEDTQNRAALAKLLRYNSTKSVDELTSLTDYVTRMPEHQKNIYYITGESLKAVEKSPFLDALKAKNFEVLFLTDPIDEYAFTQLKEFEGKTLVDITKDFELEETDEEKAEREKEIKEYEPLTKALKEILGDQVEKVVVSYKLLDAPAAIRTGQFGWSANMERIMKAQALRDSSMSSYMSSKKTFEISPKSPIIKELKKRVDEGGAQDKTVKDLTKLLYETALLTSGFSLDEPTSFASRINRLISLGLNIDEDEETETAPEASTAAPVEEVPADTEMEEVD

Hsp90β (from UniProt P08238) CK2α-phosphorylated Hsp90β, ADP titration
other: IC50 of ADP against complex [1, 5]: weaker; reference 500 ± 94; also recorded: weaker; reference 270 ± 35

Hsp90β (from UniProt P08238) CK2α-phosphorylated Hsp90β, ATP titration
other: IC50 of ATP against complex [1, 5]: weaker; reference >1000

Hsp90β (from UniProt P08238) both proteins CK2α-phosphorylated, ADP titration
other: IC50 of ADP against complex [1, 6]: weaker; reference 500 ± 94

Hsp90β (from UniProt P08238) both proteins CK2α-phosphorylated, ATP titration
other: IC50 of ATP against complex [1, 6]: weaker; reference >1000

human full-length Hsp90β, P08238 1-724 (natural protein; other documents disagree on this pair)
stoichiometry N [2]: 2

p50Cdc37 1-378 (from UniProt Q16543) CK2α-phosphorylated p50Cdc37, ADP titration
other: IC50 of ADP against complex ([3]; reference: unphosphorylated p50Cdc37, ADP titration): weaker; reference 500 ± 94; also recorded: weaker; reference 220 ± 24

p50Cdc37 1-378 (from UniProt Q16543) CK2α-phosphorylated p50Cdc37, ATP titration
other: IC50 of ATP against complex ([3]; reference: unphosphorylated p50Cdc37, ATP titration): same; reference >1000

p50Cdc37 (from UniProt Q16543)
Kd [4]: 1.46 µM
